Data on five molecules can be found in patent US5882851A, “Cytochrome P-450 monooxygenases” (Novartis Finance Corporation, priority 1993, dated 1999).

One data set deals with cytochrome P450. The experiment in a line: Photoreversible carbon monoxide inhibition of oxime production in tropaeolum microsomes. Format: biochemical, Tropaeolum majus. Particulars: 60 min. On the procedure:
The microsomal reaction mixture consists of 80 μl microsomes (10 mg protein per ml), 10 μl ^14 C-phenylalanine (0.5 μCi, 464 mCi/mmol, Amersham) or ^14 C-tyrosine (0.5 μCi, 450 mCi/mmol, Amersham) and 10 μl NADPH (75 mg/ml). The reaction mixtures are incubated for 1 hour at 37° C. At the end of the incubation period, the reaction mixtures are extracted with 1500 μl ethyl acetate. The ethyl acetate phase is evaporated to dryness, redissolved in a small volume and analyzed.
The microsomal reaction mixtures are incubated using different experimental conditions. The reaction mixtures are analyzed by HPLC.

Data set [1] deals with N[C@@H](Cc1ccc(O)cc1)C(=O)O. Briefly: Reconstitution of cytochrome P-450TYR activity in DLPC micelles. Format: biochemical, Sorghum bicolor. The conditions noted are these: pH 7.9, 30.0 °C. From the text: Reconstitution of the enzyme activity of a microsomal P-450 enzyme is accomplished by insertion of the cytochrome P-450 enzyme and the corresponding NADPH-cytochrome P-450 oxidoreductase into appropriate lipid micelles made from different commercially available lipids. Isolation of NADPH-cytochrome P-450 oxidoreductase is done according to Halkier and Moller, Plant Physiol. 96:10-17, 1990. A mixture of lipids can be used but with cytochrome P-450TYR di-lauroyl-phosphatidyl choline (DLPC) provides the best enzymatic activity. One rate limiting factor of this rate limiting reaction is the number of correctly formed complexes of cytochrome P-450TYR and NADPH-cytochrome P-450 oxidoreductase. Excess amounts of the oxidoreductase and concentrated enzyme solutions ensure a sufficient number of active complexes.
A reconstituted enzyme is obtained using the following components:
Cytochrome P-450TYR : 100 μg/ml in 50 mM potassium phosphate buffer pH 7,9
Oxidoreductase, purified from Sorghum bicolor: 100 μg/ml in 50 mM potassium phosphate buffer pH 7,9
Lipid: 10 mg/ml di-lauroyl-phosphatidyl choline, sonicated in 50 mM potassium phosphate buffer pH 7,9
^14 C-tyrosine: commercially available from Amersham; [U-^14 C]-L-tyrosine 0.5 μCi
(§1) 10 μl of the lipid suspension is mixed in a glass vial with 50 μl of the cytochrome P-450TYR (0-1.5 pmol) solution. 50 μl of the oxidoreductase (0-0.15 U) solution is added and then 10 μl tyrosine solution and 10 μl NADPH solution are added and the mixture is sonicated in a Branson 5200 sonication bath for one minute. The reaction mixture is subsequently incubated for 1 hour at 30° C. At the end of the incubation period the reaction is stopped by transferring the glass vials onto ice. Radioactively labelled intermediates formed are extracted into 50 μl ehtyl acetate, applied to a silica coated TLC plate and developed using an ethyl acetate/toluene (1:5 v/v) mixture as mobile phase. The resultant product, p-hydroxyphenylacetaldehyde oxime is visualized by autoradiography of the TLC plate. Alternatively, the intermediates are analyzed by reverse-phase HPLC coupled to a Berthold radioactiviy monitor. The HPLC separation was carried out using a nucleosil 100-10C18 column isocratically eluted with 1,5% 2-propanol in 25 mM Hepes pH 7,9 (Halkier et al, J. Biol. Chem. 264:19487-19494, 1989). Control samples may be made by omitting either cytochrome P-450 oxidoreductase or NADPH.

Data set [2] addresses NADPH-cytochrome P-450 oxidoreductase, purified from Sorghum bicolor (Sorghum bicolor).
The target in data set [3] is T1, E. coli-expressed cytochrome P-450TYR (Sorghum bicolor, UniProt Q43135).
T1 construct: in which the 35 N-terminal amino acids are replaced by the nine N-terminal amino acids from bovine 17α hydroxylase; nine N-terminal amino acids from bovine 17alpha-hydroxylase (replace the 35 N-terminal residues) (N); made in house; host or cells: E. coli JM109, vector pSP19g10L
T1 sequence (Q43135 whole entry, looked up): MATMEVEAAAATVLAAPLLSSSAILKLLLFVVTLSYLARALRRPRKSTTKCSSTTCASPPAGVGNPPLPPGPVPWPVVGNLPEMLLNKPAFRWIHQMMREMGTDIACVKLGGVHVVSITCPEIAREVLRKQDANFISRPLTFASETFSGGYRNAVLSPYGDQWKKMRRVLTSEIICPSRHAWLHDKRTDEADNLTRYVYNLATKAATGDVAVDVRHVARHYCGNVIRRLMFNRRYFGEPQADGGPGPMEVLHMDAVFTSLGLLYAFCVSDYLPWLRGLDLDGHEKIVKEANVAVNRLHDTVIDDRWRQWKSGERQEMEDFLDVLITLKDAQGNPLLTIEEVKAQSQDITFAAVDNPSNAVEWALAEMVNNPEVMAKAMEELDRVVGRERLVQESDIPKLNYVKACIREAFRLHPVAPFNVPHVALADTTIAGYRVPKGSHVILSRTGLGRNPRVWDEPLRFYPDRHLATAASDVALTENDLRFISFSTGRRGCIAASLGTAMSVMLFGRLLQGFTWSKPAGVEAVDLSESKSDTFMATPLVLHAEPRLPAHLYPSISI
The experiment in a line: Reconstitution with E. coli-expressed cytochrome P-450TYR and sorghum NADPH cytochrome P450 reductase. The class given is biochemical. Particulars: dilaurylphosphatidylcholine micelles. The protocol:
as §1, with “50 μl of the oxidoreductase (0-0.15 U) solution is added and then 10 μl tyrosine solution and 10 μl NADPH solution are added and the mixture is sonicated in a Branson 5200 sonication bath for one minute.” left out, “The HPLC separation was carried out using a nucleosil 100-10C18 column isocratically eluted with 1,5% 2-propanol in 25 mM Hepes pH 7,9 (Halkier et al, J. Biol. Chem. 264:19487-19494, 1989).” left out
Reconstitution experiments with E. cole-expressed cytochrome P-450TYR and sorghum NADPH cytochorme P450 reductase in dilaurylpohsphatidylcholine micelles is performed as described in section 5.3. above.

The target in data set [4] is NADPH-cytochrome P-450 oxidoreductase, purified from Sorghum bicolor (Sorghum bicolor). This is another data set of the same source.

As to `[C-]#[O+]` [CO/O2, carbon monoxide], the “% inhibition of oxime production” value with cytochrome P450 (with light (450 nm)) is on record as 23%; with cytochrome P450 (without light), 65%. Consider cytochrome P-450TYR (Sorghum bicolor), for which the Km (commonly the substrate concentration at which the rate is half of its maximum) in data set [1] (other: in the absence of added salt) was 210 µM; in data set [1] (other: in the presence of 15 mM NaCl), 140 µM.

Consider “modified cytochrome P-450TYR in which the 35 N-terminal amino acids are replaced by the nine N-terminal amino acids from bovine 17α hydroxylase, expressed in E. coli (from UniProt P05185) (enzyme)”, for which the oxime production by the enzyme reconstituted in dilaurylphosphatidylcholine micelles (turnover rate) (nmol oxime per nmol P-450TYR per minute) in data set [2] came to 349.

B1: cytochrome P-450TYR: sorghum cytochrome P-450 monooxygenase converting tyrosine to p-hydroxyphenylacetaldehyde oxime, SEQ ID NO: 2 (protein)
chain: MATMEVEAAAATVLAAPLLSSSAILKLLLFVVTLSYLARALRRPRKSTTKCSSTTCASPPAGVGNPPLPPGPVPWPVVGNLPEMLLNKPAFRWIHQMMREMGTDIACVKLGGVHVVSITCPEIAREVLRKQDANFISRPLTFASETFSGGYRNAVLSPYGDQWKKMRRVLTSEIICPSRHAWLHDKRTDEADNLTRYVYNLATKAATGDVAVDVRHVARHYCGNVIRRLMFNRRYFGEPQADGGPGPMEVLHMDAVFTSLGLLYAFCVSDYLPWLRGLDLDGHEKIVKEANVAVNRLHDTVIDDRWRQWKSGERQEMEDFLDVLITLKDAQGNPLLTIEEVKAQSQDITFAAVDNPSNAVEWALAEMVNNPEVMAKAMEELDRVVGRERLVQESDIPKLNYVKACIREAFRLHPVAPFNVPHVALADTTIAGYRVPKGSHVILSRTGLGRNPRVWDEPLRFYPDRHLATAASDVALTENDLRFISFSTGRRGCIAASLGTAMSVMLFGRLLQGFTWSKPAGVEAVDLSESKSDTFMATPLVLHAEPRLPAHLYPSISI
As for B1, the Turnover rate in data set [3] was 349 nmol oxime per nmol P-450TYR per minute.

B2: cytochrome P-450TYR from Sorghum bicolor (L.) Moench (enzyme)
chain: ATMEVEAAAATVLAAPLLSSSAILKLLLFVVTLSYLARALRRPRKSTTKCSSTTCASPPAGVGNPPLPPGPVPWPVVGNLPEMLLNKPAFRWIHQMMREMGTDIACVKLGGVHVVSITCPEIAREVLRKQDANFISRPLTFASETFSGGYRNAVLSPYGDQWKKMRRVLTSEIICPSRHAWLHDKRTDEADNLTRYVYNLATKAATGDVAVDVRHVARHYCGNVIRRLMFNRRYFGEPQADGGPGPMEVLHMDAVFTSLGLLYAFCVSDYLPWLRGLDLDGHEKIVKEANVAVNRLHDTVIDDRWRQWKSGERQEMEDFLDVLITLKDAQGNPLLTIEEVKAQSQDITFAAVDNPSNAVEWALAEMVNNPEVMAKAMEELDRVVGRERLVQESDIPKLNYVKACIREAFRLHPVAPFNVPHVALADTTIAGYRVPKGSHVILSRTGLGRNPRVWDEPLRFYPDRHLATAASDVALTENDLRFISFSTGRRGCIAASLGTAMSVMLFGRLLQGFTWSKPAGVEAVDLSESKSDTFMATPLVLHAEPRLPAHLYPSISI
For B2, the conversion of L-tyrosine to p-hydroxyphenyl-acetaldehyde oxime by the enzyme reconstituted in lipid micelles (turn-over number) in data set [4] stood at 198 min⁻¹.
